# Test results reported in PMC11102866, “Nucleosome-bound NR5A2 structure reveals pioneer factor mechanism by DNA minor groove anchor competition”.
# Columns and labels:
# [1] = target: T1, NR5A2 D159A (Homo sapiens, UniProt O00482 1-541, D159A); assay: EMSA; similar to wild type; EMSA: 20 mM Tris-HCl pH 7.5, 120 mM NaCl, 1 mM MgCl2, 10 uM ZnCl2, 1 mM DTT, 100 ug/ml BSA, room temperature, 30 min; 50 nM DNA or nucleosome; conditions: protein: recombinant; tags: N-terminal His6-TEV, His6 removed with TEV protease
# [2] = target: NR5A2 wild type (Homo sapiens, UniProt O00482 1-541); assay: EMSA; EMSA: 20 mM Tris-HCl pH 7.5, 120 mM NaCl, 1 mM MgCl2, 10 uM ZnCl2, 1 mM DTT, 100 ug/ml BSA, room temperature, 30 min; 50 nM DNA or nucleosome; conditions: protein: recombinant; tags: N-terminal His6-TEV, His6 removed with TEV protease
# [3] = target: T1, NR5A2 D159A; assay: EMSA; slightly less than wild type, not significant; EMSA: 20 mM Tris-HCl pH 7.5, 120 mM NaCl, 1 mM MgCl2, 10 uM ZnCl2, 1 mM DTT, 100 ug/ml BSA, room temperature, 30 min; 50 nM DNA or nucleosome; conditions: protein: recombinant; tags: N-terminal His6-TEV, His6 removed with TEV protease; blunt
binder,measurement,setting,value
149 bp endogenous mouse DNA (dsDNA) DNA 1: GGACTGGGACTTCTAAAACAAGACCTTAGTTAGGTGTGGTGCTGCATGCCTTTAATCTCAGCAGTCTGGAGGCAGAGACAGGGAGGTCTCTATGAGTTCAAGGCCAGCCTAATCTACACAGTGAGTTCCAGGACAGTCAGGGCTATAGA DNA 2: TCTATAGCCCTGACTGTCCTGGAACTCACTGTGTAGATTAGGCTGGCCTTGAACTCATAGAGACCTCCCTGTCTCTGCCTCCAGACTGCTGAGATTAAAGGCATGCAGCACCACACCTAACTAAGGTCTTGTTTTAGAAGTCCCAGTCC,binding result,[1],binds
same,binding result,[2],binds
25 bp DNA with Nr5a2 consensus motif (dsDNA) DNA 1: GAGAGAGTCAAGGCCATGGCTCACT DNA 2: AGTGAGCCATGGCCTTGACTCTCTC,binding result,[3],binds
